“Also recorded” adds a separate entry of the source.
Experiments:
[1] = system: S. epidermidis; test: Broth microdilution MIC/MBC, strain not named; format: cell-based, Staphylococcus epidermidis
From the text: Staphylococcus aureus CCUG 35601 (MRSA, Culture Collection, University of Gothenburg) and Staphylococcus aureus ATCC 29213 (MSSA, ATCC, Manassas, VA). Staphylococcus epidermidis ATCC 12228 (ATCC, Manassas, VA), RP62A, N15 and 10 clinical isolates of Staphylococcus epidermidis that have previously been characterized. Isolated Escherichia coli, Enterococcus faecium (including VRE), Pseudomonas aeruginosa, Klebsiella pneumoniae, Enterobacter spp and Acinetobacter baumannii were obtained from Orebro University hospital. Isolated Streptococcus mutans, Streptococcus constellatus and Streptococcus anginosus were obtained from Malmo University. The bacteria were grown on Luria-Bertani (LB) agar plates, supplemented with 5% defibrinated horse blood, and incubated at 37° C. overnight. Single colonies were inoculated into 5 ml of LB broth and incubated on a shaker (300 rpm) at 37° C. overnight. The bacterial concentration was determined by viable count and adjusted to correlate with approximately 10^9 CFU/ml.
The broth microdilution method was used to determine minimal inhibitory concentration (MIC) and minimal bactericidal concentration (MBC). Two-fold serial dilutions of the peptides were used and the final concentrations ranged from 0.097-50 μM. […] The effect of bacteriocin-antibiotic combinations was accomplished by using the same concentration series of antibiotics with a constant concentration of PLNC8 αβ (3.1 μM) in all the wells. […] All experiments were repeated at least three times.

[2] = system: human erythrocytes; test: Hemolysis; format: cell-based; settings: 0.5-50 μM, 1 h; listed as L-PLNC8 αβ
Experimental: The hemolytic activity of the peptides was investigated by collecting blood from healthy volunteers in heparinized vacutainers. The blood was centrifuged at 600×g for 5 min and the erythrocyte pellet was washed three times in PBS. The cells were then suspended in PBS and added to 96-well plates (15% erythrocyte suspension/well), containing the peptides with two-fold serial dilution. The plates were incubated for 1 h at 37° C. followed by centrifugation for 5 min at 900×g and measurement of the supernatants at 540 nm. Haemolytic activity (%) was calculated by subtracting the negative control from all values and normalization against the positive control (0.5% Triton X-100), that was set to 100%. All experiments, each in duplicate, were repeated three times.

[3] = Fluorescence leakage assay (CF release from liposomes); settings: after 2 min; both the L-form and D-form
Experimental: Liposomes were prepared by dry film formation, hydration and finally extrusion through a polycarbonate membrane to form monodisperse large unilamellar vesicles. […] A dry lipid film was formed by evaporation of the chloroform by nitrogen flow and overnight lyophilization. The film was hydrated with either 10 mM phosphate buffer (PB) pH 7 or 10 mM phosphate buffer saline (PBS) pH 7, and the solution was vortexed for 1 min and put on a shaker for 1 h before extruded 21 times through a 100 nm pore-sized polycarbonate membrane. For fluorescence leakage assay the lipid film was hydrated with buffer (PBS) containing self-quenching concentration (50 mM) of 5(6)-carboxyfluorescein (CF) (Sigma Aldrich) and liposomes were prepared as described above. Removal of unencapsulated CF was done by gel filtration using a PD-25 column (GE Healthcare, Uppsala, Sweden) and liposomes with encapsulated CF were eluted with PBS. Leakage of the liposome encapsulated fluorophore CF due to additions of the bacteriocins was recorded using a fluorescence plate reader (Infinite 200, Tecan, Austria) where λex=485 nm and λem=520 nm. CF was encapsulated at self-quenching concentration, and CF release results in an increased fluorescence signal. […] In order to estimate the maximum release from each sample a final addition of 0.5% Triton X-100 was made at the end of all measurements and the total amount of CF (100% release) was estimated after 15 min incubation. The CF release is presented as percentage release for each time interval (measurements taken every minute). The percentage CF release is calculated as 100×(F−F0)/(FT−F0) where F0 is the initial fluorescence intensity of CF before peptide addition, F is the fluorescence intensity of CF at time point t and FT is the maximum fluorescence after the addition of Triton X-100.

[4] = system: S. aureus (MSSA and MRSA); test: Sytox Green lysis and time-kill assay; format: cell-based, Staphylococcus aureus
Experimental: The fluorescent dye Sytox® Green, which can only cross damaged membranes and fluoresce upon binding to nucleic acids, was used to study the antimicrobial activity of PLNC8 αβ on S. epidermidis, S. aureus (MSSA, MRSA) and Streptococcus spp. The bacteria were washed and resuspended in Krebs-Ringer Glucose buffer (KRG) (120 mM NaCl, 4.9 mM KCl, 1.2 mM MgSO4, 1.7 mM KH2PO4, 8.3 mM Na2HPO4, and 10 mM glucose, pH 7.3) and incubated in the presence or absence of different combinations of PLNC8 αβ in 96-well microtiter plates for 2 min. Images were captured with Olympus BX41 at 40× magnification.

B1: PLNC8 αβ: two-peptide class IIb bacteriocin of L. plantarum NC8: PLNC8 α (SEQ ID NO 1) with PLNC8 β (SEQ ID NO 2) (peptide)
alpha: DLTTKLWSSWGYYLGKKARWNLKHPYVQF
beta: SVPTSVYTLGIKILWSAYKHRKTIEKSFNKGFYH
modifications: Lactobacillus plantarum NC8
In the case of B1, the “decrease of MIC and MBC of gentamicin by the peptides” value ([1]; S. epidermidis, FIG. 15) is reported as 15-30 fold, the “decrease of MIC and MBC of rifampicin by the peptides” value ([1]; S. epidermidis, FIG. 15) is reported as 100 fold and the “decrease of MIC and MBC of vancomycin by the peptides” value ([1]; S. epidermidis, FIG. 15) is reported as 2 fold. The “inhibition of S. epidermidis isolated from PJIs” value ([1]; incl. hGISE, FIG. 14) was “effectively inhibits different strains of S. epidermidis isolated from PJIs, including S. epidermidis (hGISE)”, the hemolytic activity [2] was “no hemolytic activity was observed; also recorded: low hemolytic activity” and the lysis of liposomes [3] was “complete lysis of liposomes after 2 min”. For the same molecule, the “lysis and killing of S. aureus” value [4] was “dose-dependently and rapidly lysed and killed S. aureus”.

From patent publication US12064464B2, “Plantaricin NC8 alpha beta markedly enhances the effects of antibiotics” (priority 2018, dated 2024)
